Reference: patent US20180088121A1
Where no end group is shown, it is not given here.

Biological target: TCRs of APC frameshift neopeptide specific T cell populations
Experiment: flow cytometry, double staining with PE and APC labelled neopeptide-MHC multimers of T cells after 2 weeks of in vitro expansion; first panel from the left

LILYYILPRKV (peptide-MHC, part only; not given: HLA-A2 heavy chain, construct, human, part only, also: bound in HLA-A2 MHC multimer, PE and APC labelled) [A2/…]
number in the upper right quadrant (MHC-Multimer PE and APC double positive), no percent sign printed: 0.31
